The values below come from the supplement of paper PMC12042874.

± gives the uncertainty stated by the source.

The nature of the data set: amyloid nucleation score (Sup35N fusion, yeast selection) (log enrichment); library NNK3; higher = more nucleation; inactive = no reads after selection. Put shortly: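 After 24 hours of induction with 100 μM copper sulfate, psi-negative yeast expressing peptides of 20 random codons fused to Sup35N were grown for 7 days at 30°C on medium lacking adenine and uracil. Input and output plasmid inserts were sequenced with Illumina, and sequences with under 100 input reads were discarded. Scores for nucleation are the DiMSum log enrichment of output over input reads, centred on the mode score of non-aggregating sequences.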
With SWMYEFGSGTVKGGGKSELD, the amyloid nucleation score entry was “inactive”.
In the case of SWPVCWDHIWQSWGLTTSAV, the amyloid nucleation score result was “inactive”.
In the case of SWRAVRRALLGRCNGSRVLV, the amyloid nucleation score entry was “inactive”.
Substance SWTCRFCHMSFIGML displayed an amyloid nucleation score of 0.251 ± 0.43.
With SYDNWWCVILMRNQGRCAWG, the amyloid nucleation score entry was “inactive”.
The entry for SYFVWVNV is “inactive”.
SYGKTFAMSYVW: the amyloid nucleation score result was “inactive”.
Turning to SYINHTIPRVLWAITLRYLI, the amyloid nucleation score result is “inactive”.
The entry for SYMACYFSIAYEYFNSTFDK is “inactive”; for SYMLTFK it is “inactive”; for SYPERMLWSSVMADFKMRRP it is “inactive”.
Regarding SYQVCSKQTPHFSLSFIMFV, the amyloid nucleation score is -0.488 ± 0.96.
Substance SYRASSGCHWREPHGLSDVR had an amyloid nucleation score of 0.897 ± 0.21.
With SYRGSRRRSFTSYLCEFEGM, the amyloid nucleation score result was “inactive”.
SYSGIYILSSFAATSSFILS showed an amyloid nucleation score of 0.46 ± 0.2.
The entry for SYSQKKRHVSKSTGSRAWQA is “inactive”; for SYSRLWTQMNCTKVVNSYC it is “inactive”; for SYSWYFYSAGTSWI it is “inactive”.
Take SYTPHY: the amyloid nucleation score result is “inactive”.
Turning to SYVAVPR, the amyloid nucleation score entry is “inactive”.
For the substance SYVVSQPFSHRYWESLTMAL, the amyloid nucleation score entry was “inactive”.
For the substance SYYAHL, the amyloid nucleation score entry is “inactive”.
With SYYMTKLVFLCPLW, the amyloid nucleation score entry was “inactive”.
SYYTYVFTIVTPRKTNLWSG: the amyloid nucleation score came out at 0.64 ± 0.28.
As for TAAYSLFIEVSCSQSTN, the amyloid nucleation score result is “inactive”.
The entry for TADRQGYSFEC is “inactive”.
For TAEKSGVGLFGGTSVFLFES, the amyloid nucleation score result is “inactive”.
The substance TAFTYYASVSFVSRL came in with an amyloid nucleation score of 1.38 ± 0.093.
As to TAKTRC, the amyloid nucleation score was -0.272 ± 0.96.
For the substance TARYMLSKYVTLCNDVSI, the amyloid nucleation score is 0.984 ± 0.12.
TASWVLFVAVVCICLTLFSY displayed an amyloid nucleation score of 0.85 ± 0.3.
TAWGMLGGPE: the amyloid nucleation score result was “inactive”.
The substance TAYFFSVARVMVDLTTALLA yielded an amyloid nucleation score of 0.161 ± 0.33.
Turning to TCECDGFLFFRRCFNWG, the amyloid nucleation score result is “inactive”.
The entry for TCEWQRTCNPVGMSYKWSRG is “inactive”; for TCGINYRGYEDPRPCRGTEI it is “inactive”; for TCGVVSPRGMSNMLCLGGWS it is “inactive”.
Regarding TCHLSKHEISYQLGDTNGHC, the amyloid nucleation score is -0.516 ± 0.9.
Take TCIGPGRFFFMMFYV: the amyloid nucleation score entry was “inactive”.
With TCLLRQCWNNVMS, the amyloid nucleation score result was “inactive”.
The figure for TCLWFLFIKRSSRDSEIWS is 0.209 ± 0.53; for TCRPFIT it is “inactive”.
As for TCSTGAGNFCVCDFRLVRMR, the amyloid nucleation score entry is “inactive”.
In the case of TDHNDLMKLFATRCSPNPCL, the amyloid nucleation score result was “inactive”.
As for TDILLYMIFVLHVVSNGVLG, the amyloid nucleation score entry is “inactive”.
As to TDVIYVDGPLA, the amyloid nucleation score entry was “inactive”.
With TDVVSSVILRYSFFGHVNEF, the amyloid nucleation score entry was “inactive”.
Take TDVYHQNAQYHRVYNLQGRV: the amyloid nucleation score entry is “inactive”.
The entry for TENISFECYMEIY is “inactive”.
The entry for TENISVCGYYYRMIALDMFW is “inactive”; for TEYTILLASRNLFPTR it is 0.598 ± 0.25; for TFDPKL it is “inactive”.
The figure for TFLLCVVDGCCICRRGSCAS is 2.2 ± 0.096; for TFLNRIQWSKWILN it is “inactive”.
Turning to TFRTTGM, the amyloid nucleation score result was “inactive”.
In the case of TFSNNYPFSRWGCFSVLAV, the amyloid nucleation score result was “inactive”.
As to TFVKSVLSYVLGLELSLRGL, the amyloid nucleation score result was “inactive”.
The substance TFVVSVMHKCAW gave an amyloid nucleation score of 1.18 ± 0.11.
The entry for TGDGTWS is “inactive”; for TGILRNFSCFSFWFWVIRIT it is 1.46 ± 0.097.
For TGSDAYSMRMPRQPPISFVV, the amyloid nucleation score result was “inactive”.
With TGVVMCLGIEMINDYIPVLN, the amyloid nucleation score entry is “inactive”.
Consider TGYHGHTPFSYDQYEFHLRV, for which the amyloid nucleation score entry was “inactive”.
Turning to TGYLAMWLY, the amyloid nucleation score entry was “inactive”.
As to TGYLQLYRTADDRGLEYCIM, the amyloid nucleation score entry is “inactive”.
In the case of THDAVNFVLRHWAITGNTDM, the amyloid nucleation score result was “inactive”.
The entry for THEHMRHC is “inactive”; for THGREGYASSSSSLGPGSIS it is -0.08 ± 0.44.
Consider THMATNLAGMYREAHGSGGI, for which the amyloid nucleation score result was “inactive”.
The entry for THPVSCRYVSPDMSSAHYFV is “inactive”.
The entry for THYEVWGLT is “inactive”; for TIFECRRASFNVSVEMGR it is “inactive”; for TIFMWCV it is 1.64 ± 0.097.
The figure for TIFSIDFIIVYT is 1.81 ± 0.057; for TIIRLIFIWAFFGSGICGRV it is “inactive”; for TIMCNIWLGFRT it is 2.01 ± 0.096.
For TINIQCALGMNQT, the amyloid nucleation score came out at 1.17 ± 0.11.
Take TINRLLICI: the amyloid nucleation score was -0.14 ± 0.57.
TIQCMCFCSNRVLTIIVQLS gave an amyloid nucleation score of -0.61 ± 0.75.
With TISGLNM, the amyloid nucleation score result is “inactive”.
Turning to TISIVTWDIVRSKCMRRKVL, the amyloid nucleation score result was “inactive”.
With TIVFCIVLGWLEFHRHFVSD, the amyloid nucleation score entry was “inactive”.
The entry for TIWSCMCVMWITRPSNTRRP is “inactive”.
TIWSITFLGCKLELTEKCLV gave an amyloid nucleation score of 0.979 ± 0.24.
In the case of TIYNEGCVCKVYKESLGGSA, the amyloid nucleation score entry was “inactive”.
In turn, TKAAMPRNNYLFILY yielded an amyloid nucleation score of -0.278 ± 0.71.
In the case of TKCVLNGRRLSLCPLDNSMR, the amyloid nucleation score entry is “inactive”.
As for TKFIMKRLLVERVSCFLRSH, the amyloid nucleation score entry was “inactive”.
As to TKSMVKNLHALPSIKRGVFV, the amyloid nucleation score result was “inactive”.
As to TKTHCFLLLSGVCVGRVLGW, the amyloid nucleation score entry was “inactive”.
Regarding TLDGLLRASMYSLIYWLVLM, the amyloid nucleation score entry was “inactive”.
TLFEMYNVTFIMKNGLQES: the amyloid nucleation score is 1.96 ± 0.062.
The entry for TLFNLFRVKLIDEPNLAKWL is “inactive”; for TLGSAEDMYRQPRIANTDSC it is -0.123 ± 0.59.
For the substance TLLIRCYPYIMLYRFAASTD, the amyloid nucleation score result is “inactive”.
As to TLLRHVNNDGGSVSLGTMLA, the amyloid nucleation score entry is “inactive”.
In the case of TLLSFAHYHHLWSHLVYRSV, the amyloid nucleation score entry was “inactive”.
On to TLSLACGSYVQCSMEFLSSG, for which the amyloid nucleation score was 1.6 ± 0.08.
Regarding TLSLVQQSR, the amyloid nucleation score entry is “inactive”.
With TLTRVRTRCTKWRFICNCPM, the amyloid nucleation score was found to be 0.254 ± 0.34.
As to TLTWHNVWGCICGKFLTV, the amyloid nucleation score result was “inactive”.
On to TLVGYLIARLFWR, for which the amyloid nucleation score result is “inactive”.
In the case of TLWMGF, the amyloid nucleation score result was “inactive”.
As for TLYCRYFG, the amyloid nucleation score worked out at 1.01 ± 0.23.
As for TMAEGL, the amyloid nucleation score result is “inactive”.
For TMIFMLVI, the amyloid nucleation score entry was “inactive”.
In the case of TMLDLGDKYVMLFEQVDSFF, the amyloid nucleation score entry was “inactive”.
Consider TMSRRAARMQCAILVPSRLL, for which the amyloid nucleation score entry was “inactive”.
In the case of TNDFVNV, the amyloid nucleation score result was “inactive”.
Take TNDTLFFVTSLVADPVERIS: the amyloid nucleation score entry was “inactive”.
Turning to TNGKEWWNCVYGERTVNAFA, the amyloid nucleation score result is “inactive”.
On to TNGLVLHRSWLEFFLYYTQR, for which the amyloid nucleation score entry was “inactive”.
For the substance TNLWFKNLSMFMGIVSLART, the amyloid nucleation score entry was “inactive”.
In the case of TNNAIGVFSLECIGFPEAGR, the amyloid nucleation score entry was “inactive”.
For the substance TNNEDKFWRVVLNLGTVTSD, the amyloid nucleation score result is “inactive”.
For TNRPMNGSYNNMWSRINLMV, the amyloid nucleation score entry was “inactive”.
Take TNTNTCL: the amyloid nucleation score result is “inactive”.
With TNVSEFQALTWMNTWYSAFS, the amyloid nucleation score result is “inactive”.
Take TNVTANGVKPHPYPMRSPAT: the amyloid nucleation score result is “inactive”.
Take TPKTLDWAYGYNIVSGKAIN: the amyloid nucleation score result was “inactive”.
Regarding TPLDDLMCQLCSGYPLVILP, the amyloid nucleation score result was “inactive”.
Consider TPRKTLSDVLFFRLILS, for which the amyloid nucleation score entry was “inactive”.
For the substance TPRLSMDHTFVRWDCV, the amyloid nucleation score entry was “inactive”.
For the substance TPSLAIKK, the amyloid nucleation score entry was “inactive”.
The entry for TQAWSTL is “inactive”; for TQDRYAISIRLVSTQLKLMS it is “inactive”.
With TQESRDIGFTAPRGRICTQG, the amyloid nucleation score result is “inactive”.
For TQFTLCTIHSVLCVNA, the amyloid nucleation score amounted to 2.06 ± 0.078.
Take TRASRRKSHSTSMDLPIRRH: the amyloid nucleation score entry was “inactive”.
For the substance TRCYRASE, the amyloid nucleation score entry was “inactive”.
In turn, TRFLFCFNWIWGEPVACEYE had an amyloid nucleation score of 2.39 ± 0.07.
With TRKMLLVVSKYVMTPYGFGL, the amyloid nucleation score entry is “inactive”.
